Test results as given in patent US20110300138A1 (published 2011).
Like-named read-outs stand apart in the source and are kept apart here.

Assays:
[1] = molecular target: TSH receptor (full length human TSHR) coated on tubes (human) (UniProt P16473); test: 125I-TSH binding inhibition read against NIBSC 90/672; 30 ng/mL, in serum
[2] = molecular target: TSH receptor (TSHR), full length human, coated on tubes (human) (UniProt P16473); test: inhibition of 125I-K1-18 IgG binding to TSHR coated tubes; competitor 125I-K1-18 IgG; negative control sample at 10 µg/mL in assay buffer
[3] = molecular target: TSHR (full length) coated on tubes (human) (UniProt P16473); test: inhibition of 125I-K1-18 Fab (competitor) binding to TSHR coated tubes; negative control 1 µg/mL in HBD serum
[4] = molecular target: TSH receptor (TSHR), full length human, coated on tubes (human) (UniProt P16473); test: inhibition of 125I-K1-18 IgG binding to TSHR coated tubes; competitor 125I-K1-18 IgG; negative control sample at 0.01 µg/mL in HBD serum
[5] = molecular target: TSH receptor (full length human TSHR) (human) (UniProt P16473); test: competition ELISA: inhibition of M22 Fab-peroxidase (competitor) binding to TSHR coated wells; negative control at 100 µg/mL diluted in HBD serum pool
[6] = molecular target: TSHR with Arg255 mutated to Asp expressed in CHO cells (human) (UniProt P16473); test: cell-based or functional assay
[7] = molecular target: TSHR with Trp258 mutated to Ala (human) (UniProt P16473); test: cell-based or functional assay
[8] = molecular target: TSHR with Glu107 mutated to Ala expressed in CHO cells (human) (UniProt P16473); test: cell-based or functional assay
[9] = molecular target: TSH receptor (TSHR), full length human, coated on tubes (human) (UniProt P16473); test: inhibition of 125I-TSH binding to TSHR coated tubes; 0.01 µg/mL, diluted in assay buffer
[10] = molecular target: thyroid stimulating hormone receptor (full length human TSHR) (human) (UniProt P16473); test: ELISA: inhibition of M22 Fab-peroxidase (competitor) binding to TSHR coated wells; 100 µg/mL, diluted in assay buffer
[11] = molecular target: human thyroid stimulating hormone receptor (TSHR), full length (human) (UniProt P16473); test: 125I-K1-18 Fab competition, TSHR coated tubes; 0.01 µg/mL in HBD
[12] = molecular target: TSH receptor (TSHR), full length human, coated on tubes (human) (UniProt P16473); test: inhibition of 125I-TSH binding to TSHR coated tubes; 0.01 µg/mL, diluted in assay buffer; remark: listed apart in the source
[13] = molecular target: thyroid stimulating hormone receptor (full length human TSHR) (human) (UniProt P16473); test: ELISA: inhibition of M22 Fab-peroxidase (competitor) binding to TSHR coated wells; 10 µg/mL, diluted in HBD serum pool
[14] = molecular target: thyroid stimulating hormone receptor (TSHR), full length, coated on tubes (human) (UniProt P16473); test: inhibition of 125I-TSH binding, TSHR coated tubes; antibody 0.01 µg/mL in HBD serum pool
[15] = molecular target: TSH receptor (TSHR), full length human, coated on tubes (human) (UniProt P16473); test: inhibition of 125I-TSH binding to TSHR coated tubes; 0.001 µg/mL, diluted in HBD serum pool
[16] = molecular target: thyroid stimulating hormone receptor (full length human TSHR) (human) (UniProt P16473); test: ELISA: inhibition of M22 Fab-peroxidase (competitor) binding to TSHR coated wells; 10 µg/mL, diluted in assay buffer
[17] = molecular target: TSH receptor (TSHR), full length human, coated on tubes (human) (UniProt P16473); test: inhibition of 125I-K1-18 IgG (competitor) binding to TSHR coated tubes; test sample at 0.1 µg/mL in assay buffer

Molecule: M22 IgG (antibody)
- units/L [1]: 4.3 units/L

Molecule: 5B3 IgG (antibody)
- Inhibition of binding (%) [2]: -2.7%
- Inhibition of binding (%) [3]: -3.1%
- Inhibition of binding (%) [4]: -8.1%
- Inhibition of binding (%) [5]: 3.8%

Molecule: TSH (ligand)
- Cyclic AMP produced (pmol/mL), TSH 0.01 ng/mL, Experiment 1 [6]: 2.59 pmol/mL
- Cyclic AMP produced (pmol/mL), TSH 0.01 ng/mL, Experiment 2 [6]: 1.49 pmol/mL
- Cyclic AMP produced (pmol/mL), TSH 0.01 ng/mL, Experiment 3 [6]: 6.46 pmol/mL
- Cyclic AMP produced (pmol/mL), TSH 0.03 ng/mL, Experiment 1 [6]: 6.47 pmol/mL
- Cyclic AMP produced (pmol/mL), TSH 0.03 ng/mL, Experiment 2 [6]: 2.81 pmol/mL
- Cyclic AMP produced (pmol/mL), TSH 0.03 ng/mL, Experiment 3 [6]: 9.44 pmol/mL
- Cyclic AMP produced (pmol/mL), TSH 0.1 ng/mL, Experiment 1 [6]: 19.2 pmol/mL
- Cyclic AMP produced (pmol/mL), TSH 0.1 ng/mL, Experiment 2 [6]: 6.92 pmol/mL
- Cyclic AMP produced (pmol/mL), TSH 0.1 ng/mL, Experiment 3 [6]: 22.7 pmol/mL
- Cyclic AMP produced (pmol/mL), TSH 0.3 ng/mL, Experiment 1 [6]: 51.7 pmol/mL
- Cyclic AMP produced (pmol/mL), TSH 0.3 ng/mL, Experiment 2 (duplicate determination) [6]: 21.2 pmol/mL
- Cyclic AMP produced (pmol/mL), TSH 0.3 ng/mL, Experiment 3 [6]: 68.9 pmol/mL
- Cyclic AMP produced (pmol/mL), TSH 1 ng/mL, Experiment 1 [6]: 68.6 pmol/mL
- Cyclic AMP produced (pmol/mL), TSH 1 ng/mL, Experiment 2 [6]: 41.1 pmol/mL
- Cyclic AMP produced (pmol/mL), TSH 1 ng/mL, Experiment 3 [6]: 154 pmol/mL
- Cyclic AMP produced (pmol/mL), TSH 3 ng/mL, Experiment 1 [6]: 57.7 pmol/mL
- Cyclic AMP produced (pmol/mL), TSH 3 ng/mL, Experiment 2 [6]: 52.4 pmol/mL
- Cyclic AMP produced (pmol/mL), TSH 3 ng/mL, Experiment 3 [6]: 201 pmol/mL
- Mutated/Wild type (%) of cyclic AMP produced, TSH 0.01 ng/mL, Experiment 1 [6]: 59%
- Mutated/Wild type (%) of cyclic AMP produced, TSH 0.01 ng/mL, Experiment 2 [6]: 67%
- Mutated/Wild type (%) of cyclic AMP produced, TSH 0.01 ng/mL, Experiment 3 [6]: 124%
- Mutated/Wild type (%) of cyclic AMP produced, TSH 0.03 ng/mL, Experiment 1 [6]: 70%
- Mutated/Wild type (%) of cyclic AMP produced, TSH 0.03 ng/mL, Experiment 2 [6]: 78%
- Mutated/Wild type (%) of cyclic AMP produced, TSH 0.03 ng/mL, Experiment 3 [6]: 96%
- Mutated/Wild type (%) of cyclic AMP produced, TSH 0.1 ng/mL, Experiment 1 [6]: 71%
- Mutated/Wild type (%) of cyclic AMP produced, TSH 0.1 ng/mL, Experiment 2 [6]: 88%
- Mutated/Wild type (%) of cyclic AMP produced, TSH 0.1 ng/mL, Experiment 3 [6]: 91%
- Mutated/Wild type (%) of cyclic AMP produced, TSH 0.3 ng/mL, Experiment 1 [6]: 123%
- Mutated/Wild type (%) of cyclic AMP produced, TSH 0.3 ng/mL, Experiment 2 [6]: 78%
- Mutated/Wild type (%) of cyclic AMP produced, TSH 0.3 ng/mL, Experiment 3 [6]: 75%
- Mutated/Wild type (%) of cyclic AMP produced, TSH 1 ng/mL, Experiment 1 [6]: 114%
- Mutated/Wild type (%) of cyclic AMP produced, TSH 1 ng/mL, Experiment 2 [6]: 76%
- Mutated/Wild type (%) of cyclic AMP produced, TSH 1 ng/mL, Experiment 3 [6]: 80%
- Mutated/wild type (%) of cyclic AMP produced; TSH 3 ng/mL; Experiment 1 [6]: 94%
- Mutated/wild type (%) of cyclic AMP produced; TSH 3 ng/mL; Experiment 2 [6]: 90%
- Cyclic AMP produced, TSH 0.01 ng/mL, Experiment 1 [7]: 1.93 pmol/mL
- Cyclic AMP produced, TSH 0.01 ng/mL, Experiment 2 [7]: 1.56 pmol/mL
- Cyclic AMP produced, TSH 0.03 ng/mL, Experiment 1 [7]: 2.88 pmol/mL
- Cyclic AMP produced, TSH 0.03 ng/mL, Experiment 2 [7]: 2.76 pmol/mL
- Cyclic AMP produced, TSH 0.1 ng/mL, Experiment 1 [7]: 7.51 pmol/mL
- Cyclic AMP produced, TSH 0.1 ng/mL, Experiment 2 [7]: 7.04 pmol/mL
- Cyclic AMP produced, TSH 0.3 ng/mL, Experiment 1 [7]: 22.3 pmol/mL
- Cyclic AMP produced, TSH 0.3 ng/mL, Experiment 2 [7]: 17.3 pmol/mL
- Cyclic AMP produced, TSH 1 ng/mL, Experiment 1 [7]: 45.7 pmol/mL
- Cyclic AMP produced, TSH 1 ng/mL, Experiment 2 [7]: 49.2 pmol/mL
- Cyclic AMP produced; TSH 3 ng/mL; Experiment 1 [7]: 54 pmol/mL
- Cyclic AMP produced; TSH 3 ng/mL; Experiment 2 [7]: 84.7 pmol/mL
- Mutated/Wild type (%) of cyclic AMP produced, TSH 0.01 ng/mL, Experiment 1 [7]: 158%
- Mutated/Wild type (%) of cyclic AMP produced, TSH 0.01 ng/mL, Experiment 2 [7]: 77%
- Mutated/Wild type (%) of cyclic AMP produced, TSH 0.03 ng/mL, Experiment 1 [7]: 156%
- Mutated/Wild type (%) of cyclic AMP produced, TSH 0.03 ng/mL, Experiment 2 [7]: 141%
- Mutated/Wild type (%) of cyclic AMP produced, TSH 0.1 ng/mL, Experiment 1 [7]: 154%
- Mutated/Wild type (%) of cyclic AMP produced, TSH 0.1 ng/mL, Experiment 2 [7]: 156%
- Mutated/Wild type (%) of cyclic AMP produced, TSH 0.3 ng/mL, Experiment 1 [7]: 128%
- Mutated/Wild type (%) of cyclic AMP produced, TSH 0.3 ng/mL, Experiment 2 [7]: 128%
- Mutated/Wild type (%) of cyclic AMP produced, TSH 1 ng/mL, Experiment 1 [7]: 86%
- Mutated/Wild type (%) of cyclic AMP produced, TSH 1 ng/mL, Experiment 2 [7]: 114%
- Mutated/wild type (%) of cyclic AMP produced; TSH 3 ng/mL; Experiment 1 [7]: 76%
- Mutated/wild type (%) of cyclic AMP produced; TSH 3 ng/mL; Experiment 2 [7]: 100%
- % inhibition of TSH stimulation; TSH (2) [8]: 12%
- Cyclic AMP produced, mutated TSHR, TSH 0.01 ng/mL [8]: 8.2 pmol/mL
- Cyclic AMP produced, mutated TSHR, TSH 0.03 ng/mL [8]: 8.92 pmol/mL
- Cyclic AMP produced, mutated TSHR, TSH 0.1 ng/mL [8]: 8.24 pmol/mL
- Cyclic AMP produced, mutated TSHR, TSH 0.3 ng/mL [8]: 15.7 pmol/mL
- Cyclic AMP produced, mutated TSHR, TSH 1 ng/mL [8]: 30.2 pmol/mL
- Cyclic AMP produced, mutated TSHR, TSH 3 ng/mL [8]: 43.9 pmol/mL
- Cyclic AMP produced; TSH 3 ng/mL [8]: 83.7 pmol/mL
- Cyclic AMP produced; TSH (2) [8]: 73.2 pmol/mL
- Mutated/Wild type (%) of cyclic AMP produced, TSH 0.01 ng/mL [8]: 582%
- Mutated/Wild type (%) of cyclic AMP produced, TSH 0.03 ng/mL [8]: 448%
- Mutated/Wild type (%) of cyclic AMP produced, TSH 0.1 ng/mL [8]: 149%
- Mutated/Wild type (%) of cyclic AMP produced, TSH 0.3 ng/mL [8]: 97%
- Mutated/Wild type (%) of cyclic AMP produced, TSH 1 ng/mL [8]: 68%
- Mutated/wild type (%) of cyclic AMP produced; TSH 3 ng/mL [8]: 82%
- Mutated/wild type (%) of cyclic AMP produced; TSH (2) [8]: 78%
- Mutated/wild type (%) of cyclic AMP produced; TSH 3 ng/mL ([8]; record 2): 110%

Molecule: 9D33 IgG (antibody)
- Inhibition of binding (%) [9]: 15.8%

B1: 5C9 IgG (antibody, from another filing, V domains shown)
VH: EVQLVESGGGLIQPGGSLRLSCAASGFTVSSNYMSWVRQAPGKGLEWVSVTYSGGSTSYADSVKGRFTISRDNSKNTLYLQMNSLRAEDTAVYYCARGGRYCSSISCYARSGCDYWGQGTLVTVSS
VL: AIQMTQSPSSLSASVGDRVTITCRASQSISNYLNWYQQKPGKAPKLLIYAASSLQSGVPSRFSGSGSGTDFTLTISSLQPEDFATYYCQQSYSSPSTTFGQGTKLEIK
- Inhibition of binding (%) [10]: 24.6%
- Inhibition of binding (%) [11]: 5.7%
- Inhibition of binding (%) [12]: 8.3%
- Inhibition of binding (%) [13]: 13%
- Inhibition of binding (%) [14]: 4.1%
- Inhibition of binding (%) [15]: -8%
- Inhibition of binding (%) [16]: 13.2%
- Inhibition of binding (%) [17]: 33.4%
